Laboratory results: US7939064B2 (priority 2006, dated 2011)
“Also recorded” adds a separate entry of the source.

What was measured:
[1] = test system: transient cerebral focal ischemia (left middle cerebral artery occlusion); details: rat, in vivo
[2] = test system: neurons in striatum and cortex of ischemic brains; experiment: Haematoxylin and eosin histology of ischemic brain sections; type: in vivo, rat; details: NsPLA2 at 0 min post-occlusion
Text: The ability of NsPLA2 to protect neurons from cell death was investigated. Paraffin-embedded rat brains were sectioned and stained with haematoxylin and eosin. […] Neurons appeared shrunken and nuclei were dysmorphic and pyknotic.

[3] = test system: neurons in striatum and cortex of ischemic brains; details: rat, in vivo
[4] = test system: gene expression in ischemic brain; experiment: Microarray gene expression analysis (RAE-230A GeneChips) of MCAo and MCAo+NsPLA2 brains; type: in vivo, rat
Text: Cerebral ischemia is a powerful stimulus for the de novo expression of many gene systems and identification of genes differentially expressed in the ischemic and non-ischemic brain can help illuminate pathophysiology and provide therapeutic targets in ischemia. Analysis of gene expression can also aid in elucidating the role of various pathways or specific genes in the mechanism of action of neuroprotective agents. Consequently, the power of high-density oligonucleotide arrays was harnessed to generate global expression profiles of non-ischemic, ischemic and NsPLA2-treated brains. RNA isolated from the brains of sham-operated rats (sham-op; n=4), rats subjected to 60 min of MCAo (MCAo; n=4) and rats subjected to 60 min of MCAo but treated with 30 μg/200 g body weight NsPLA2 immediately post-occlusion (MCAo+NsPLA2; n=4) was pooled before microarray probe preparation and hybridization to minimize inter-individual variation. Expression analysis was carried out using GeneChips from the RAE-230A Array set, with each chip representing ˜15,900 genes and expressed sequence tags (ESTs). Genes whose expression changed by 1.7-fold or greater in at least one pairwise comparison (between sham-op and MCAo or between MCAo and MCAo+NsPLA2) were deemed significant.
In an attempt to understand the mechanisms by which NsPLA2 may confer neuroprotection, the gene expression profiles of MCAo and MCAo+NsPLA2 were compared. […] They are listed in Table 1 and include genes involved in cell growth and maintenance (retinol-binding protein, regulator of G-protein signalling 2, DNA topoisomerase, X transporter protein 3, hemoglobin &chain complex, nucleosome assembly protein 1-like, cyclin-dependent kinase inhibitor 1A and chloride intracellular channel 4), development (tropomyosin 4 and neurogenic differentiation 1), lipid metabolism (tissue inhibitor of metalloproteinase 1 and sulfotransferase family 1A), Ca^2+-binding (calpactin 1 heavy chain, calgranulin A, protein disulfide isomeraserelated protein and S-100 related protein), maintenance of cytoskeletal structure (tropomyosin 1 and moesin), defense response (CD44 antigen), regulation of blood pressure (angiotensinogen), cell-cell signaling (thyrotropin releasing hormone), antioxidant activity (glutathione-S-transferase), proteolysis (MMP-9), cell adhesion (l-gicerin) and transcriptional regulation (POU domain).

[5] = test system: gene expression in ischemic brain; experiment: Real-time PCR quantitation of nine genes in MCAo and NsPLA2-treated brains; type: in vivo, rat; details: NsPLA2 treatment relative to MCAo brain
Text: The expression of nine genes that may have important roles in mediating the neuroprotective action of NsPLA2 was quantitated by real-time PCR (FIG. 8). Specific primers were used for PCR amplification. The relative expression of each gene in the heart was obtained after normalizing against an internal control (18S ribosomal RNA) and a calibrator, in this case, the sham-operated control or MCAo brain, FIGS. 8A and B respectively, relative gene expression=1).

TNF-a = details: rat, in vivo
[6] = LD50 and signs of toxicity of NsPLA2
[7] = test system: Bcl-2, Bcl-XL and Bax genes; experiment: Real-time PCR of anti-/pro-apoptotic genes in OGD hippocampal tissues; details: OGD and NsPLA2 treatment
Experimental: (A) Organotypic hippocampal cultures were subjected to OGD (oxygen-glucose deprivation) for 90 mins and treated with NsPLA2. […] Total RNA was isolated from the hippocampal tissues and subjected to reverse transcription and PCR. The data was derived from 6 independent PCR (n=6).
Thus, we carried out experiments using the organotypic hippocampal cultures, in conditions where oxygen is eliminated by using the 95% N2 and 5% CO2 and glucose was deprived in cultures by using culture media without glucose.

[8] = NsPLA2-treated vs saline-treated MCAo brain

B1: tPA: tissue plasminogen activator, thrombolytic serine protease converting plasminogen to plasmin (protein, UniProt P00750 36-562, looked up)
Tissue-type plasminogen …: SYQVICRDEKTQMIYQQHQSWLRPVLRSNRVEYCWCNSGRAQCHSVPVKSCSEPRCFNGGTCQQALYFSDFVCQCPEGFAGKCCEIDTRATCYEDQGISYRGTWSTAESGAECTNWNSSALAQKPYSGRRPDAIRLGLGNHNYCRNPDRDSKPWCYVFKAGKYSSEFCSTPACSEGNSDCYFGNGSAYRGTHSLTESGASCLPWNSMILIGKVYTAQNPSAQALGLGKHNYCRNPDGDAKPWCHVLKNRRLTWEYCDVPSCSTCGLRQYSQPQFRIKGGLFADIASHPWQAAIFAKHRRSPGERFLCGGILISSCWILSAAHCFQERFPPHHLTVILGRTYRVVPGEEEQKFEVEKYIVHKEFDDDTYDNDIALLQLKSDSSRCAQESSVVRTVCLPPADLQLPDWTECELSGYGKHEALSPFYSERLKEAHVRLYPSSRCTSQHLLNRTVTDNMLCAGDTRSGGPQANLHDACQGDSGGPLVCLNDGRMTLVGIISWGLGCGQKDVPGVYTKVTNYLDWIRDNMRP
With B1 the “effect on infarct volume after transient ischemia” value [1] was “did not significantly reduce infarct volume” and the “neuroprotection compared with the phospholipase A2” value [1] was “less neuroprotective”.

B2: NsPLA2 (protein)
chain: NLYQFKNMVQCTVPNRSWWHFADYGCYCGRGGSGTPVDDLDRCCQIHDNCYNEAEKISRCWPYFKTYSYECSQGTLTCKGGNNACAAAVCDCDRLAAICFAGAPYNDNNYNIDLKARCQ
modifications: Naja sputatrix
In the case of B2, the “brain infarction compared to saline-treated control” value [1] is reported as “no effect”, the “infarct size, TTC staining of serial brain sections” value [1] is reported as “significant reduction in infarct size; also recorded: reduced the infarct size but to a lesser extent” and the “reduction of focal ischemia / infarct size (summary statement)” value [1] is reported as 80%. For the same molecule, the “ischemic damage, cellular morphology (haematoxylin and eosin)” value [2] was “significantly reduced ischemic damage”, the “degree of apoptosis (TUNEL)” value [3] was “greatly reduced” and the “fold change, Adipose differentiation-related protein (1390383_at)” value [4, 8] was −1.75 fold. The “fold change, CD9 antigen (1371499_at)” value [4, 8] was −2.6 fold, the “fold change, CD44 antigen (1387952_a_at)” value [4, 8] was −3.7 fold and the “fold change, Calcium/calmodulin-dependent protein kinase (CaM kinase) II gamma (1369993_at)” value [4, 8] was 1.74 fold. The “fold change, Chloride intracellular channel 4 (1387420_at)” value [4, 8] was −1.9 fold, the “fold change, DNA topoisomerase I (1369421_at)” value [4, 8] was −4.6 fold and the “fold change, I-gicerin (1369793_a_at)” value [4, 8] was −1.75 fold. For the same molecule, the “fold change, NOV protein (1376734_at)” value [4, 8] was 1.87 fold, the “fold change, ProSAPiP1 protein (1373057_at)” value [4, 8] was 1.74 fold and the “fold change, S100 calcium-binding protein A8 (calgranulin A) (1368494_at)” value [4, 8] was −1.75 fold. The “fold change, S-100 related protein (1386890_at)” value [4, 8] was −1.9 fold, the “fold change, Similar to endothelial monocyte-activating polypeptide (1375170_at)” value [4, 8] was −1.9 fold and the “fold change, Similar to plexinB1 (1374444_at)” value [4, 8] was 2 fold. The “fold change, Similar to tropomodulin 3 (1372500_at)” value [4, 8] was −1.75 fold, the “fold change, X transporter protein 3 (1369705_at)” value [4, 8] was −1.75 fold and the “fold change, aldose reductase-like protein (1370902_at)” value [4, 8] was −2.6 fold. For the same molecule, the “fold change, angiotensinogen (1387811_at)” value [4, 8] was 1.87 fold, the “fold change, calpactin I heavy chain (1367584_at)” value [4, 8] was −1.75 fold and the “fold change, cyclin-dependent kinase inhibitor 1A (1387391_at)” value [4, 8] was −3 fold. The “fold change, fibulin 2 (1389533_at)” value [4, 8] was −1.75 fold, the “fold change, gap junction protein, beta 6 (connexin 30) (1368577_at)” value [4, 8] was 1.87 fold and the “fold change, glutathione S-transferase, alpha 1 (1367774_at)” value [4, 8] was 2 fold. For the same molecule, the “fold change, hemoglobin beta chain complex (1371102_x_at)” value [4, 8] was −1.75 fold, the “fold change, homer, neuronal immediate early gene, 1 (1370997_at)” value [4, 8] was −2.44 fold and the “fold change, matrix metalloproteinase 9 (1369166_at)” value [4, 8] was −2 fold. The “fold change, microtubule-associated protein, RP/EB family, member 1 (1370792_at)” value [4, 8] was −4.3 fold, the “fold change, moesin (1368948_at)” value [4, 8] was −2.3 fold and the “fold change, neurogenic differentiation 1 (1387288_at)” value [4, 8] was 1.74 fold. For the same molecule, the “fold change, nucleosome assembly protein 1-like 1 (1373473_a_at)” value [4, 8] was −2.3 fold, the “fold change, ornithine decarboxylase antizyme inhibitor (1370575_a_at)” value [4, 8] was −1.9 fold and the “fold change, protein disulfide isomerase related protein (calcium-binding protein) (1370007_at)” value [4, 8] was −2 fold. For the same molecule, the “fold change, regulator of G-protein signaling protein 2 (1368144_at)” value [4, 8] was −2.44 fold, the “fold change, retinol binding protein 1 (1367939_at)” value [4, 8] was −1.75 fold and the “fold change, serine (or cysteine) proteinase inhibitor, clade H, member 1 (1371310_s_at)” value [4, 8] was −1.9 fold. For the same molecule, the “fold change, sulfotransferase family 1A, phenol-preferring, member 1 (1370019_at)” value [4, 8] was 1.87 fold, the “fold change, syndecan 1 (1367849_at)” value [4, 8] was −1.9 fold and the “fold change, thyrotropin releasing hormone (1368912_at)” value [4, 8] was −3.5 fold. The “fold change, tissue inhibitor of metalloproteinase 1 (1367712_at)” value [4, 8] was −2 fold, the “fold change, tropomyosin 1, alpha (1370288_a_at)” value [4, 8] was −2.44 fold and the “fold change, tropomyosin 4 (1368838_at)” value [4, 8] was −2.1 fold. The “fold change, tumor rejection antigen gp96 (1388331_at)” value [4, 8] was −2.1 fold, the “fold change, glutathione S-transferase, alpha 1 (1367774_at)” value ([4]; NsPLA2-treated vs saline-treated MCAo brain, listed as PLA2) was “+2.0 fold” and the “decrease in expression of thyrotropin releasing hormone” value ([4]; after PLA2 treatment) was 3.5 fold. For the same molecule, the “expression of glutathione-S-transferase, CAM kinase II and angiotensinogen (real-time PCR)” value [5] was “increased”, the “expression of thyrotropin releasing hormone, secreted phosphoprotein, moesin, MMP-9, TIMP-1 and calgranulin A (real-time PCR)” value [5] was “decreased” and the systemic inflammation (TNF-a) was “did not induce systemic inflammation”. For the same molecule, the signs of toxicity ([6]; 30 μg/200 g body weight i.v.) was “did not induce any signs of toxicity”, the LD50 ([6]; rat, in vivo) was 125 μg/200 g body weight and the “Bax gene expression (real-time PCR)” value [7] was “down-regulated”. The “Bcl-2 gene expression (real-time PCR)” value [7] was “up-regulated” and the “Bcl-XL gene expression (real-time PCR)” value [7] was “up-regulated”.
